molecular target: nr1d1_human NR1D1 (UniProt P20393)
Sequence (P20393 whole entry): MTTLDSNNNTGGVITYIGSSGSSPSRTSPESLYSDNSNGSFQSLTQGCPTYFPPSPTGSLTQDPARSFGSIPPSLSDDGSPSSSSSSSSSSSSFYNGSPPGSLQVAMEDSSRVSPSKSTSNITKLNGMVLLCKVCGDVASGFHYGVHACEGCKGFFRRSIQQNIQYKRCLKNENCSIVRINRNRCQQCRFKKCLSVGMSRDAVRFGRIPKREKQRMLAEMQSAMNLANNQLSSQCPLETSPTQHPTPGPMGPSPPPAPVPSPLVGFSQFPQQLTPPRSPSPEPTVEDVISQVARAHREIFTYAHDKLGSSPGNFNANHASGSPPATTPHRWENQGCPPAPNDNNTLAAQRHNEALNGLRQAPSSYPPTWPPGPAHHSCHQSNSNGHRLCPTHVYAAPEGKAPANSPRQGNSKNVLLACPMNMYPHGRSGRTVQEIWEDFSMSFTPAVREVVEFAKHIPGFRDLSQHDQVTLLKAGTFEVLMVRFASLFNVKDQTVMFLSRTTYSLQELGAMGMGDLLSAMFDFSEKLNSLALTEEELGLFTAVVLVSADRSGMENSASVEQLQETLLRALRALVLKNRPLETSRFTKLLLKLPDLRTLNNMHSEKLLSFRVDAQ

effect of a mutation on the interaction	Substance
disrupting interaction	Nuclear receptor corepressor 1 (Homo sapiens), O75376 I2059A
disrupting interaction	Nuclear receptor corepressor 1 (Homo sapiens), O75376 I2058A;I2059A
disrupting interaction	Nuclear receptor corepressor 1 (Homo sapiens), O75376 I2055A
disrupting interaction	Nuclear receptor corepressor 1 (Homo sapiens), O75376 I2058A

molecular target: nr1d1_human NR1D1 (UniProt P20393); remark: another data set of the same source

effect of a mutation on the interaction	Substance
decreasing interaction	Nuclear receptor corepressor 1 (Homo sapiens), O75376 H2046A
disrupting interaction	Nuclear receptor corepressor 1 (Homo sapiens), O75376 H2054A

Continued, substance first:

Substance	effect of a mutation on the interaction
Nuclear receptor corepressor 1 (Homo sapiens), O75376 L2048A	decreasing interaction
Nuclear receptor corepressor 1 (Homo sapiens), O75376 L2051A	decreasing interaction
